The values below come from paper PMC9398908, “GLP-1-mediated delivery of tesaglitazar improves obesity and glucose metabolism in male mice” (Nature Metabolism, 2022).

Data set [1] can be described thus: in vivo. To be noted: Sprague Dawley, rat. Set-up: species or system Sprague Dawley rats. On the procedure:
(§1) Plasma concentration-time profiles were analysed in C57BL6J mice and Sprague Dawley rats by a non-compartmental method using sparse sampling in Pharsight Phoenix WinNonLin v.6.4 software, and the resulting terminal half-life (T1/2), maximum plasma concentration (Cmax), time for maximum plasma concentration (Tmax), and AUC from zero to last valid measurable concentration-time point (AUC0-t) were determined.

The nature of data set [2]: in vivo. Set-up: species or system C57BL6J mice. Conditions: mouse. The protocol: as §1
In data set [3] the test system is C57BL/6J DIO mice. Kind of data set: Urinary albumin:creatinine ratio in DIO mice (Extended Data Fig. 2g). To be noted: 14-day treatment, 50 nmol kg−1 per day, in words. It is filed as in vivo, mouse. An excerpt:
Frozen urine samples from heterozygous GIPR^dn mice in a CD1 background (n = 3) served as positive controls. […] For each treatment group, uACR was computed as a ratio of urinary albumin (mg ml^−1) to urinary creatinine (mg ml^−1).

Setting [4] is: 100 nmol/kg, concentration (PK, Extended Data Fig. 1c).
Setting [5] is: male, 100 nmol/kg, concentration (PK, Extended Data Fig. 1c).
Setting [6] is: C57BL6J, 100 nmol/kg, concentration (PK, Extended Data Fig. 1c).
Where [7] appears, read: male, C57BL6/J, 100 nmol/kg, concentration (PK, Extended Data Fig. 1c).

Consider `CCO[C@@H](Cc1ccc(OCCc2ccc(OS(C)(=O)=O)cc2)cc1)C(=O)N[C@@H](CCC(=O)NCCCC[C@H](NC(=O)[C@H](CO)NC(=O)[C@@H]1CCCN1C(=O)[C@@H]1CCCN1C(=O)[C@@H]1CCCN1C(=O)[C@H](C)NC(=O)CNC(=O)[C@H](CO)NC(=O)[C@H](CO)NC(=O)[C@@H]1CCCN1C(=O)CNC(=O)CNC(=O)[C@H](CCCCN)NC(=O)[C@@H](NC(=O)[C@H](CC(C)C)NC(=O)[C@H](Cc1c[nH]c2ccccc12)NC(=O)[C@H](C)NC(=O)[C@@H](NC(=O)[C@H](Cc1ccccc1)NC(=O)[C@H](CCC(=O)O)NC(=O)[C@H](CCCCN)NC(=O)[C@H](C)NC(=O)[C@H](C)NC(=O)[C@H](CCC(N)=O)NC(=O)[C@H](CCC(=O)O)NC(=O)[C@H](CCC(=O)O)NC(=O)[C@H](CC(C)C)NC(=O)[C@H](Cc1ccc(O)cc1)NC(=O)[C@H](CO)NC(=O)[C@H](CO)NC(=O)[C@@H](NC(=O)[C@H](CC(=O)O)NC(=O)[C@H](CO)NC(=O)[C@@H](NC(=O)[C@H](Cc1ccccc1)NC(=O)[C@@H](NC(=O)CNC(=O)[C@H](CCC(=O)O)NC(=O)C(C)(C)NC(=O)[C@@H](N)Cc1c[nH]cn1)[C@@H](C)O)[C@@H](C)O)C(C)C)[C@@H](C)CC)C(C)C)C(N)=O)C(=O)O` [GLP-1RA/tesaglitazar, GLP-1 Aib2 Glu16 CEX Lys40/tesaglitazar conjugate], for which the level at time molar at 4 h in data set [1] (setting [4]) is 20.5 nM. Besides, in data set [1] (male), the area under the curve AUC(0-t) – broadly, exposure summed from dosing to a finite time, without extrapolation to infinity – was determined as 0.174 µM·h; the maximum concentration (Cmax) (usually the highest concentration seen after dosing) turned out to be 37.5 nM; the half-life (in general, how long it takes for the measured level to halve) is 2.54 h. In data set [1] (setting [5]), this compound had a level at time molar at 10 min of 41.7 nM, a level at time molar at 1 h of 40.3 nM, a level at time molar at 2 h of 26.8 nM and a level at time molar at 4 h of 21.2 nM. Moreover, in data set [2] (setting [6]), the level at time molar at 10 min was 246 nM, the level at time molar at 0.5 h stood at 314 nM and the level at time molar at 1 h amounted to 131 nM. In data set [2] (male, C57BL6/J), this compound had an AUC(0-t) of 0.505 µM·h, a Cmax of 278 nM and a half-life of 1.1 h. Moreover, in data set [2] (setting [7]), the level at time molar at 2 h was determined as 87.6 nM and the level at time molar at 4 h worked out at 21.6 nM. Also, the “urinary albumin:creatinine ratio” value in data set [3] is “likewise not changed”.
In data set [1] (setting [4]), `CC[C@H](C)[C@H](NC(=O)[C@H](Cc1ccccc1)NC(=O)[C@H](CCC(=O)O)NC(=O)[C@H](CCCCN)NC(=O)[C@H](C)NC(=O)[C@H](C)NC(=O)[C@H](CCC(N)=O)NC(=O)[C@H](CCC(=O)O)NC(=O)[C@H](CCC(=O)O)NC(=O)[C@H](CC(C)C)NC(=O)[C@H](Cc1ccc(O)cc1)NC(=O)[C@H](CO)NC(=O)[C@H](CO)NC(=O)[C@@H](NC(=O)[C@H](CC(=O)O)NC(=O)[C@H](CO)NC(=O)[C@@H](NC(=O)[C@H](Cc1ccccc1)NC(=O)[C@@H](NC(=O)CNC(=O)[C@H](CCC(=O)O)NC(=O)C(C)(C)NC(=O)[C@@H](N)Cc1c[nH]cn1)[C@@H](C)O)[C@@H](C)O)C(C)C)C(=O)N[C@@H](C)C(=O)N[C@@H](Cc1c[nH]c2ccccc12)C(=O)N[C@@H](CC(C)C)C(=O)N[C@H](C(=O)N[C@@H](CCCCN)C(=O)NCC(=O)NCC(=O)N1CCC[C@H]1C(=O)N[C@@H](CO)C(=O)N[C@@H](CO)C(=O)NCC(=O)N[C@@H](C)C(=O)N1CCC[C@H]1C(=O)N1CCC[C@H]1C(=O)N1CCC[C@H]1C(=O)N[C@@H](CO)C(=O)N[C@@H](CCCCN)C(N)=O)C(C)C` [GLP-1RA, GLP-1 Aib2 Glu16 CEX Lys40] returned a level at time molar at 4 h of 10.7 nM. In data set [1] (male), this compound showed an AUC(0-t) of 0.131 µM·h, a Cmax of 41.3 nM and a half-life of 2.13 h. In data set [1] (setting [5]), this compound had a level at time molar at 0.5 h of 30.7 nM, a level at time molar at 2 h of 26.1 nM and a level at time molar at 4 h of 15.8 nM. In data set [2] (setting [6]), this compound returned a level at time molar at 0.5 h of 435 nM and a level at time molar at 1 h of 219 nM. Further, in data set [2] (male, C57BL6/J), the AUC(0-t) stood at 0.399 µM·h and the Cmax stood at 361 nM.
